Assay results published in article PMC9270970.

Target: SynNotch receptor (CD8a signal-Myc-LaG17-Notch1 minimal transmembrane core-tTA) (mouse) (UniProt Q01705)
Sequence of UniProt Q01705 (Q01705 whole entry): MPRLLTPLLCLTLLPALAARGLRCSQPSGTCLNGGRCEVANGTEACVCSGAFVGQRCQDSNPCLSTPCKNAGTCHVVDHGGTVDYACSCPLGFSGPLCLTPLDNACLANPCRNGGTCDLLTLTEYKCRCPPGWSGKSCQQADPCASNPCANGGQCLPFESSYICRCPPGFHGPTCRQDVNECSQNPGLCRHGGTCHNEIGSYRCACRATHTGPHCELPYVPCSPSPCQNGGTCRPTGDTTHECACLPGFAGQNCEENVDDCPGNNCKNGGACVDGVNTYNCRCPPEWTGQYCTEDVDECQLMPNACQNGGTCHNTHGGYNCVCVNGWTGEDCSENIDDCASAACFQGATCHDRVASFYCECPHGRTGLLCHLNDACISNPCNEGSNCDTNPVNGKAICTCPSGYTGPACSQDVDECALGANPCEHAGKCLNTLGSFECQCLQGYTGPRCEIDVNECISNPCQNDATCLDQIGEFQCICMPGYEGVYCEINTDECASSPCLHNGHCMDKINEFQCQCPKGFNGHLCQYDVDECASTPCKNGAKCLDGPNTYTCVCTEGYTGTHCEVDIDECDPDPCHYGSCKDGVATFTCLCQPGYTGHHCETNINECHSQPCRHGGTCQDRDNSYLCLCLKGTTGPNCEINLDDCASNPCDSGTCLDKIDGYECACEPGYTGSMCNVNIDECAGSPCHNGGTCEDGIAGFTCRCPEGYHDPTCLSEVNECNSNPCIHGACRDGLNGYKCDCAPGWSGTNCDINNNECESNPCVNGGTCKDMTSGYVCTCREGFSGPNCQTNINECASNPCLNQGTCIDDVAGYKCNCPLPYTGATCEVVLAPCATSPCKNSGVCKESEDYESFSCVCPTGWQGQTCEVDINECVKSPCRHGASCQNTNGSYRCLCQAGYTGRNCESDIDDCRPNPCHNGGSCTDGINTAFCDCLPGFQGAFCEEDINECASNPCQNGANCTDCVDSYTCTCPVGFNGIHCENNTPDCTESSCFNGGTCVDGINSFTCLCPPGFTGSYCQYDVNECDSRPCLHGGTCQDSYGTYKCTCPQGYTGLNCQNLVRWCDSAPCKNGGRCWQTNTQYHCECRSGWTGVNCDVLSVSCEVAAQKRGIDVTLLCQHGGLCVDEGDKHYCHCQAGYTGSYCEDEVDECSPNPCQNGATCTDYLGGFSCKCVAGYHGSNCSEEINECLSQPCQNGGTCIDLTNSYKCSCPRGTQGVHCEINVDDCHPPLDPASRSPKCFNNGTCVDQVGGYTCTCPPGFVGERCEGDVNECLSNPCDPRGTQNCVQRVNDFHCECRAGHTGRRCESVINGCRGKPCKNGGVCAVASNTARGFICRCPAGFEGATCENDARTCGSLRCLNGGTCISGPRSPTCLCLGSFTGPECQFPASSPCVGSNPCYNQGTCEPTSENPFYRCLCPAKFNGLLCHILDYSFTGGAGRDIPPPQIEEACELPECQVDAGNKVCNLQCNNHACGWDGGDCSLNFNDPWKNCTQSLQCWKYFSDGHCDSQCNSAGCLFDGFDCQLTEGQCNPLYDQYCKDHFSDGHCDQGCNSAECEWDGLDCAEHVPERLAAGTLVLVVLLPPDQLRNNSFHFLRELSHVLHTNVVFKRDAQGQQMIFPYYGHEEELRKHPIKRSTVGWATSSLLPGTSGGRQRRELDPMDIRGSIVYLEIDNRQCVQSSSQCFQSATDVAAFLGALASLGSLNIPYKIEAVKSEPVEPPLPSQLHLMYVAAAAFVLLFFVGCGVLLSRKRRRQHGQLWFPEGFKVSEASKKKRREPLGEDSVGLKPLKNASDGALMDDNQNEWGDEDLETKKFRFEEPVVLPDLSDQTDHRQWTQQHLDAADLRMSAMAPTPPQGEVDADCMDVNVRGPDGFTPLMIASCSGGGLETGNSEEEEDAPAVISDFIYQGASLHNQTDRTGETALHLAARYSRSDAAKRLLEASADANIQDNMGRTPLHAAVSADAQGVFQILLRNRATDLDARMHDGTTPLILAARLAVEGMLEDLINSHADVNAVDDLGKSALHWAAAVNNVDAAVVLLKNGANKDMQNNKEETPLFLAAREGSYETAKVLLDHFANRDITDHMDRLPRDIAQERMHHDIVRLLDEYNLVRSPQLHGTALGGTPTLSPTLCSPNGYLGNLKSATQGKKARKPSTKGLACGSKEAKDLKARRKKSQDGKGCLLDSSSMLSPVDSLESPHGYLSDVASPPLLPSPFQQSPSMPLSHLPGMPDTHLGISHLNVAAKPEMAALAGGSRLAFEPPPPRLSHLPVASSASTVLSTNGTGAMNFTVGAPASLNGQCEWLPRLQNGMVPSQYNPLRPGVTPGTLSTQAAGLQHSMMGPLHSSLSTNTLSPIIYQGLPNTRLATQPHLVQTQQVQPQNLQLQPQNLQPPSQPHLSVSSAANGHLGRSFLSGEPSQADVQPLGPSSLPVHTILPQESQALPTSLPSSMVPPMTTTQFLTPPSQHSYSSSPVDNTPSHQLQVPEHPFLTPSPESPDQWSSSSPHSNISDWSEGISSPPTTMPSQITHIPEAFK

percentage of STC receiver cells that induce mCherry after 24 h of co-culture with different proportions of sender cells (20% to 90% sender cells): > 90%
Substance: membrane-tethered extracellular EGFP (IgGK signal-EGFP-PDGFRB TMD) (ligand)
